The experiment addresses REK7 (endogenous, on rat E16 cortical neurons) (rat). Kind of experiment: cell-based or functional assay.

“soluble AL-1 (purified from BT20 conditioned medium) (ligand)” came in with a tyrosine autophosphorylation of REK7 (immunoprecipitation with anti-REK7, anti-phosphotyrosine blot) of 2 fold.

Values taken from EP0787148B1.
